Each block holds one molecule with its values, some of them ahead of it.
What was measured:
[1] = biological target: SPHK1 (sphingosine kinase 1) (UniProt Q9NYA1); experiment: Co-IP of Flag-PKR with endogenous SPHK1; conditions: reference: wild-type PKR-Flag; sites T451
[2] = biological target: SPHK1 (sphingosine kinase 1) (UniProt Q9NYA1); experiment: GST-SPHK1 pull-down of Flag-purified PKR; conditions: reference: wild-type PKR-Flag; sites T451
GST-PKR = biological target: T1, GST-PKR (human, UniProt P19525 1-551); experiment: pull-down; Flag-tagged SPHK1 (wild type, 225A, 225D) immunoprecipitated with anti-Flag from HEK293T lysates, purified and co-incubated with GST-PKR; conditions: both partners purified
T1 construct: double-stranded RNA-dependent protein kinase R (PKR), human, full-length cDNA; also called PKR (in vitro); source: prokaryotic expression (pGEX-4T1/pET28a vectors)
T1 sequence (P19525 whole entry): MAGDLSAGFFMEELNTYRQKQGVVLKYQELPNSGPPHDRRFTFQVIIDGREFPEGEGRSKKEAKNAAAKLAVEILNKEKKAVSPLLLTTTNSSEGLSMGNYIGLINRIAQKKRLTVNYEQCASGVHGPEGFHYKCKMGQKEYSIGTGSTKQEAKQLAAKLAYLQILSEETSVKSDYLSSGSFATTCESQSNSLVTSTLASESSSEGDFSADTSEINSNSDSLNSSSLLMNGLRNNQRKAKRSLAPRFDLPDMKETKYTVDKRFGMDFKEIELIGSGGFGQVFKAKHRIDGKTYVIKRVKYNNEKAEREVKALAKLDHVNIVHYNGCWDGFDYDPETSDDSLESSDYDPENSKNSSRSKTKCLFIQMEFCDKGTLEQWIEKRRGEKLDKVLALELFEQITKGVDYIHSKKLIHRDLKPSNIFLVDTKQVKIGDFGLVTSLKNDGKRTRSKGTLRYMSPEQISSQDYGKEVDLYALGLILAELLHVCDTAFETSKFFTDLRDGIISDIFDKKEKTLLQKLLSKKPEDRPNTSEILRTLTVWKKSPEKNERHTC

PKR^451A-Flag = biological target: T2, PKR^451A-Flag (human, UniProt P19525 1-551, T451A); experiment: pull-down; Flag-tagged PKR (wild type, 451A, 451D) purified from HEK293T and co-incubated with GST-SPHK1; conditions: both partners purified
T2 construct: double-stranded RNA-dependent protein kinase R (PKR), human, full-length cDNA, point mutant at Thr451; also called T451A; source: HEK293T, transfected, in lysate; also purified from the lysate for the GST pulldown; not shown: Flag, C-terminal, kept
T2 sequence (P19525 whole entry T451A): as the sequence (P19525 whole entry) above, with T451A counted along it

PKR^451D-Flag = biological target: T3, PKR^451D-Flag (human, UniProt P19525 1-551, T451D); experiment: as above; conditions: both partners purified
T3 construct: double-stranded RNA-dependent protein kinase R (PKR), human, full-length cDNA, point mutant at Thr451; also called T451D; source: HEK293T, transfected, in lysate; also purified from the lysate for the GST pulldown; not shown: Flag, C-terminal, kept
T3 sequence (P19525 whole entry T451D): as the sequence (P19525 whole entry) above, with T451D counted along it

PKR-Flag (wild type) = biological target: T4, PKR-Flag (wild type) (human, UniProt P19525 1-551); experiment: as above; conditions: both partners purified
T4 construct: double-stranded RNA-dependent protein kinase R (PKR), human, full-length cDNA; also called wild-type PKR; Flag-PKR; source: HEK293T, transfected, in lysate; also purified from the lysate for the GST pulldown; not shown: Flag, C-terminal, kept
T4 sequence (P19525 whole entry): as the sequence (P19525 whole entry) above

binding against the reference [1]: stronger | binding against the reference [2]: stronger
Molecule: PKR (dsRNA-dependent protein kinase R) (from UniProt P19525) T451A

binding result (GST-PKR): binds
B1: SPHK1^225D-Flag (phosphomimetic mutant of SPHK1) (enzyme, human, UniProt Q9NYA1 1-384, looked up)
chain: MDPAGGPRGVLPRPCRVLVLLNPRGGKGKALQLFRSHVQPLLAEAEISFTLMLTERRNHARELVRSEELGRWDALVVMSGDGLMHEVVNGLMERPDWETAIQKPLCSLPAGSGNALAASLNHYAGYEQVTNEDLLTNCTLLLCRRLLSPMNLLSLHTASGLRLFSVLSLAWGFIADVDLESEKYRRLGEMRFTLGTFLRLAALRTYRGRLAYLPVGRVGSKTPADPVVVQQGPVDAHLVPLEEPVPSHWTVVPDEDFVLVLALLHSHLGSEMFAAPMGRCAAGVMHLFYVRAGVSRAMLLRLFLAMEKGRHMEYECPYLVYVPVVAFRLEPKDGKGVFAVDGELMVSEAVQGQVHPNYFWMVSGCVEPPPSWKPQQMPPPEEPL
notes: sphingosine kinase 1 (SPHK1), human, full-length cDNA, point mutant at Ser225; source: HEK293T, transfected, in lysate; also purified from the lysate with anti-Flag for the GST pulldown; not shown: Flag, C-terminal, kept

binding result (PKR^451A-Flag): binds | binding result (PKR^451D-Flag): binds | binding result (PKR-Flag (wild type)): binds
B2: GST-SPHK1 (enzyme, human, UniProt Q9NYA1 1-384, looked up)
chain: MDPAGGPRGVLPRPCRVLVLLNPRGGKGKALQLFRSHVQPLLAEAEISFTLMLTERRNHARELVRSEELGRWDALVVMSGDGLMHEVVNGLMERPDWETAIQKPLCSLPAGSGNALAASLNHYAGYEQVTNEDLLTNCTLLLCRRLLSPMNLLSLHTASGLRLFSVLSLAWGFIADVDLESEKYRRLGEMRFTLGTFLRLAALRTYRGRLAYLPVGRVGSKTPASPVVVQQGPVDAHLVPLEEPVPSHWTVVPDEDFVLVLALLHSHLGSEMFAAPMGRCAAGVMHLFYVRAGVSRAMLLRLFLAMEKGRHMEYECPYLVYVPVVAFRLEPKDGKGVFAVDGELMVSEAVQGQVHPNYFWMVSGCVEPPPSWKPQQMPPPEEPL
notes: sphingosine kinase 1 (SPHK1), human, full-length cDNA in pGEX-4T1; pGEX-4T1 normally adds GST at the N-terminus; also called purified SPHK1; source: Rosetta bacterial cells, purified on Glutathione Sepharose beads
